Results as given in paper PMC2956685, “The 14-3-3ζ Protein Binds to the Cell Adhesion Molecule L1, Promotes L1 Phosphorylation by CKII and Influences L1-Dependent Neurite Outgrowth” (PLoS ONE, 2010).

Biological target: His-L1ICD, non-phosphorylated (intracellular domain of L1) (mouse, UniProt P11627 1144-1260)
Experiment: cell-based or functional assay

Sequence of His-L1ICD, non-phosphorylated (intracellular domain of L1) (P11627 1144-1260): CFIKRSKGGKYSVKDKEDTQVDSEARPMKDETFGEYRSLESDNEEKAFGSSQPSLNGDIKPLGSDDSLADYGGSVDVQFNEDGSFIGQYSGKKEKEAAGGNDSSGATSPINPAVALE

B1: GST-14-3-3ζ (natural protein, UniProt P63104 1-245, looked up)
chain: MDKNELVQKAKLAEQAERYDDMAACMKSVTEQGAELSNEERNLLSVAYKNVVGARRSSWRVVSSIEQKTEGAEKKQQMAREYREKIETELRDICNDVLSLLEKFLIPNASQAESKVFYLKMKGDYYRYLAEVAAGDDKKGIVDQSQQAYQEAFEISKKEMQPTHPIRLGLALNFSVFYYEILNSPEKACSLAKTAFDEAIAELDTLSEESYKDSTLIMQLLRDNLTLWTSDTQGDEAEAGEGGEN
phosphorylation of L1ICD by CKII in vitro (densitometry of the phospho-L1ICD band, 0 to 180 min) after preincubation with GST-14-3-3ζ against GST alone: ~3 fold
